The chains are these.
B1: target 1 C4G,A16C (mixed)
RNA 1: CACCCGUGCAAAAAUGCAGGGGUCUAAAACUGAGCGGAUAACCUCUCUAUGG
RNA 2: GGGAAUGGAUCCACAUCUACGAAUUCGUACCAUAGCGAGGUUAUCCGGUCACCGAGAUCGGAAGAGCACACGU
B2: target 1 insC 3' of 9,insU 3' of 5 (mixed)
RNA 1: CACCCGUGCAAAAAUGCAGGGGUCUAAAACUGAGCGGAUAACCUCUCUAUGG
RNA 2: GGGAAUGGAUCCACAUCUACGAAUUCGUACCAUAGAGAGGUUACUCCGUCUCACCGAGAUCGGAAGAGCACACGU
B3: target 1 insG 3' of 19,insA 3' of 17 (mixed)
RNA 1: CACCCGUGCAAAAAUGCAGGGGUCUAAAACUGAGCGGAUAACCUCUCUAUGG
RNA 2: GGGAAUGGAUCCACAUCUACGAAUUCGUACCAUGAGAAGAGGUUAUCCGCUCACCGAGAUCGGAAGAGCACACGU
B4: target 1 insC 3' of 8,insC 3' of 8 (mixed)
RNA 1: CACCCGUGCAAAAAUGCAGGGGUCUAAAACUGAGCGGAUAACCUCUCUAUGG
RNA 2: GGGAAUGGAUCCACAUCUACGAAUUCGUACCAUAGAGAGGUUAUCCCCGCUCACCGAGAUCGGAAGAGCACACGU
B5: target 1 insC 3' of 11,insC 3' of 11 (mixed)
RNA 1: CACCCGUGCAAAAAUGCAGGGGUCUAAAACUGAGCGGAUAACCUCUCUAUGG
RNA 2: GGGAAUGGAUCCACAUCUACGAAUUCGUACCAUAGAGAGGUCCUAUCCGCUCACCGAGAUCGGAAGAGCACACGU
B6: target 1 insC 3' of 11,insG 3' of 1 (mixed)
RNA 1: CACCCGUGCAAAAAUGCAGGGGUCUAAAACUGAGCGGAUAACCUCUCUAUGG
RNA 2: GGGAAUGGAUCCACAUCUACGAAUUCGUACCAUAGAGAGGUCUAUCCGCUCAGCCGAGAUCGGAAGAGCACACGU
B7: target 1 insC 3' of 11,insC 3' of 1 (mixed)
RNA 1: CACCCGUGCAAAAAUGCAGGGGUCUAAAACUGAGCGGAUAACCUCUCUAUGG
RNA 2: GGGAAUGGAUCCACAUCUACGAAUUCGUACCAUAGAGAGGUCUAUCCGCUCACCCGAGAUCGGAAGAGCACACGU
B8: target 1 insG 3' of 11,insC 3' of 9 (mixed)
RNA 1: CACCCGUGCAAAAAUGCAGGGGUCUAAAACUGAGCGGAUAACCUCUCUAUGG
RNA 2: GGGAAUGGAUCCACAUCUACGAAUUCGUACCAUAGAGAGGUGUACUCCGCUCACCGAGAUCGGAAGAGCACACGU
B9: target 1 insU 3' of 6,insU 3' of 4 (mixed)
RNA 1: CACCCGUGCAAAAAUGCAGGGGUCUAAAACUGAGCGGAUAACCUCUCUAUGG
RNA 2: GGGAAUGGAUCCACAUCUACGAAUUCGUACCAUAGAGAGGUUAUCCUGCUUCACCGAGAUCGGAAGAGCACACGU
B10: target 1 C7G,U10G (mixed)
RNA 1: CACCCGUGCAAAAAUGCAGGGGUCUAAAACUGAGCGGAUAACCUCUCUAUGG
RNA 2: GGGAAUGGAUCCACAUCUACGAAUUCGUACCAUAGAGAGGUGAUGCGCUCACCGAGAUCGGAAGAGCACACGU
B11: target 1 G12A,C22A (mixed)
RNA 1: CACCCGUGCAAAAAUGCAGGGGUCUAAAACUGAGCGGAUAACCUCUCUAUGG
RNA 2: GGGAAUGGAUCCACAUCUACGAAUUCGUAACAUAGAGAGAUUAUCCGCUCACCGAGAUCGGAAGAGCACACGU
B12: target 1 G5A,G13C (mixed)
RNA 1: CACCCGUGCAAAAAUGCAGGGGUCUAAAACUGAGCGGAUAACCUCUCUAUGG
RNA 2: GGGAAUGGAUCCACAUCUACGAAUUCGUACCAUAGAGACGUUAUCCACUCACCGAGAUCGGAAGAGCACACGU
B13: target 1 insA 3' of 10,insA 3' of 5 (mixed)
RNA 1: CACCCGUGCAAAAAUGCAGGGGUCUAAAACUGAGCGGAUAACCUCUCUAUGG
RNA 2: GGGAAUGGAUCCACAUCUACGAAUUCGUACCAUAGAGAGGUUAAUCCGACUCACCGAGAUCGGAAGAGCACACGU
B14: target 1 insG 3' of 14,insA 3' of 10 (mixed)
RNA 1: CACCCGUGCAAAAAUGCAGGGGUCUAAAACUGAGCGGAUAACCUCUCUAUGG
RNA 2: GGGAAUGGAUCCACAUCUACGAAUUCGUACCAUAGAGAGGGUUAAUCCGCUCACCGAGAUCGGAAGAGCACACGU
B15: target 1 insC 3' of 18,insG 3' of 14 (mixed)
RNA 1: CACCCGUGCAAAAAUGCAGGGGUCUAAAACUGAGCGGAUAACCUCUCUAUGG
RNA 2: GGGAAUGGAUCCACAUCUACGAAUUCGUACCAUACGAGAGGGUUAUCCGCUCACCGAGAUCGGAAGAGCACACGU
B16: target 1 insC 3' of 20,insU 3' of 4 (mixed)
RNA 1: CACCCGUGCAAAAAUGCAGGGGUCUAAAACUGAGCGGAUAACCUCUCUAUGG
RNA 2: GGGAAUGGAUCCACAUCUACGAAUUCGUACCACUAGAGAGGUUAUCCGCUUCACCGAGAUCGGAAGAGCACACGU
B17: target 1 G5U,A9G (mixed)
RNA 1: CACCCGUGCAAAAAUGCAGGGGUCUAAAACUGAGCGGAUAACCUCUCUAUGG
RNA 2: GGGAAUGGAUCCACAUCUACGAAUUCGUACCAUAGAGAGGUUGUCCUCUCACCGAGAUCGGAAGAGCACACGU
B18: target 1 insC 3' of 11,insU 3' of 1 (mixed)
RNA 1: CACCCGUGCAAAAAUGCAGGGGUCUAAAACUGAGCGGAUAACCUCUCUAUGG
RNA 2: GGGAAUGGAUCCACAUCUACGAAUUCGUACCAUAGAGAGGUCUAUCCGCUCAUCCGAGAUCGGAAGAGCACACGU
B19: target 1 insC 3' of 12,insU 3' of 2 (mixed)
RNA 1: CACCCGUGCAAAAAUGCAGGGGUCUAAAACUGAGCGGAUAACCUCUCUAUGG
RNA 2: GGGAAUGGAUCCACAUCUACGAAUUCGUACCAUAGAGAGGCUUAUCCGCUCUACCGAGAUCGGAAGAGCACACGU
B20: target 1 del5,del8 (mixed)
RNA 1: CACCCGUGCAAAAAUGCAGGGGUCUAAAACUGAGCGGAUAACCUCUCUAUGG
RNA 2: GGGAAUGGAUCCACAUCUACGAAUUCGUACCAUAGAGAGGUUACCCUCACCGAGAUCGGAAGAGCACACGU
B21: target 1 insU 3' of 9,insC 3' of 5 (mixed)
RNA 1: CACCCGUGCAAAAAUGCAGGGGUCUAAAACUGAGCGGAUAACCUCUCUAUGG
RNA 2: GGGAAUGGAUCCACAUCUACGAAUUCGUACCAUAGAGAGGUUAUUCCGCCUCACCGAGAUCGGAAGAGCACACGU
B22: target 1 C7U,U11A (mixed)
RNA 1: CACCCGUGCAAAAAUGCAGGGGUCUAAAACUGAGCGGAUAACCUCUCUAUGG
RNA 2: GGGAAUGGAUCCACAUCUACGAAUUCGUACCAUAGAGAGGAUAUUCGCUCACCGAGAUCGGAAGAGCACACGU
B23: target 1 U10A,A20C (mixed)
RNA 1: CACCCGUGCAAAAAUGCAGGGGUCUAAAACUGAGCGGAUAACCUCUCUAUGG
RNA 2: GGGAAUGGAUCCACAUCUACGAAUUCGUACCCUAGAGAGGUAAUCCGCUCACCGAGAUCGGAAGAGCACACGU
B24: target 1 C4G,G12U (mixed)
RNA 1: CACCCGUGCAAAAAUGCAGGGGUCUAAAACUGAGCGGAUAACCUCUCUAUGG
RNA 2: GGGAAUGGAUCCACAUCUACGAAUUCGUACCAUAGAGAGUUUAUCCGGUCACCGAGAUCGGAAGAGCACACGU
B25: target 1 C2G,A9G (mixed)
RNA 1: CACCCGUGCAAAAAUGCAGGGGUCUAAAACUGAGCGGAUAACCUCUCUAUGG
RNA 2: GGGAAUGGAUCCACAUCUACGAAUUCGUACCAUAGAGAGGUUGUCCGCUGACCGAGAUCGGAAGAGCACACGU
B26: target 1 A1G,C4A (mixed)
RNA 1: CACCCGUGCAAAAAUGCAGGGGUCUAAAACUGAGCGGAUAACCUCUCUAUGG
RNA 2: GGGAAUGGAUCCACAUCUACGAAUUCGUACCAUAGAGAGGUUAUCCGAUCGCCGAGAUCGGAAGAGCACACGU
B27: target 1 insU 3' of 18,insU 3' of 6 (mixed)
RNA 1: CACCCGUGCAAAAAUGCAGGGGUCUAAAACUGAGCGGAUAACCUCUCUAUGG
RNA 2: GGGAAUGGAUCCACAUCUACGAAUUCGUACCAUAUGAGAGGUUAUCCUGCUCACCGAGAUCGGAAGAGCACACGU

Here are results for 27 molecules from paper PMC10786891, “Massively parallel profiling of RNA-targeting CRISPR-Cas13d”.

For this series, the target named is T1, EsCas13d, nuclease-dead (Eubacterium siraeum, UniProt B0MS50, R295A;H300A;R849A;H854A).
T1 sequence: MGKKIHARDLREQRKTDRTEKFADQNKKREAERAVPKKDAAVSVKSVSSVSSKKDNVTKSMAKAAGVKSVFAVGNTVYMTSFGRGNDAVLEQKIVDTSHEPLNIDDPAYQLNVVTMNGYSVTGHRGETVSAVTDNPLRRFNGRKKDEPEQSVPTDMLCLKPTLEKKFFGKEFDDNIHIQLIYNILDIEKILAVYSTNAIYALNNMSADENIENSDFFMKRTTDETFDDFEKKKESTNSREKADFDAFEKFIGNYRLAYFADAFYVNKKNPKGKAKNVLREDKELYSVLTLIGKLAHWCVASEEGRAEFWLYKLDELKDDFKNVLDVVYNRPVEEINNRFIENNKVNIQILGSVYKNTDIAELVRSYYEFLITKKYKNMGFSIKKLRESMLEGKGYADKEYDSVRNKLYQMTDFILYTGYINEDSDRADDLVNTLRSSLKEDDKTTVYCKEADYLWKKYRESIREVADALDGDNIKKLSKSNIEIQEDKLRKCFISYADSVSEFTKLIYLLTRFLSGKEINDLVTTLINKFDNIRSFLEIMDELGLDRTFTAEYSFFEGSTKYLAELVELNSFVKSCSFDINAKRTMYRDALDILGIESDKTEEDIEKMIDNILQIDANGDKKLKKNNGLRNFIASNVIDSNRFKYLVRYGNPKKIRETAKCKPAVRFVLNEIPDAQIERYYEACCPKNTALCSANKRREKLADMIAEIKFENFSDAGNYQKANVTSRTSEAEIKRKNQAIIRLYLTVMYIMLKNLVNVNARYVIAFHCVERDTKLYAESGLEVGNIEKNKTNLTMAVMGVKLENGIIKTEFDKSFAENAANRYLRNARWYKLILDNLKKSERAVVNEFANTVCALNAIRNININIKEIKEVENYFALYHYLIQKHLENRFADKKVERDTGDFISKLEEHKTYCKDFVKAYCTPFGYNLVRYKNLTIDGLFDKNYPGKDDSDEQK
Briefly: crRNA (strand 1, pre-loaded); Mg2+; 40 mM Tris-HCl pH 7.5, 150 mM NaCl, 6 mM MgCl2, 1 mM DTT, 0.1% Tween-20, 0.2 mg/ml BSA; 25 C; 10 min per concentration, then washed. Conditions: tags: His6-TwinStrep-SUMO cleaved; N-terminal SNAP kept (SNAP-Surface 488); label: 3' end held by stalled T7 RNA polymerase.
Take B1: binding was put at a Kd of 39 ± 5 nM.
For B2 the value was 7.39 ± 0.32 nM.
In turn, B3 gave a Kd of 73 ± 12 nM.
Consider B4, for which the Kd amounted to 14.5 ± 0.7 nM.
With B5 the figure was 35 ± 7 nM; with B6, 35 ± 9 nM; with B7, 26.2 ± 1.7 nM.
As to B8, the Kd worked out at 31.4 ± 2.2 nM.
With B9 the figure was 10.3 ± 0.8 nM; with B10, 20 ± 0.8 nM.
For B11 the value was 13 ± 0.9 nM; for B12, 50 ± 7 nM.
For B13 the value was 5.79 ± 0.32 nM.
In turn, B14 had an equilibrium dissociation constant (Kd) of 30.3 ± 2.3 nM.
With B15 the figure was 47.4 ± 3 nM; with B16, 9.1 ± 0.5 nM; with B17, 27.2 ± 1.8 nM.
With B18 the figure was 35 ± 8 nM.
For B19 the value was 12.2 ± 0.8 nM; for B20, 18 ± 0.8 nM.
The molecule B21 came in with a Kd of 12.9 ± 1.3 nM.
With B22 the figure was 32.7 ± 2.9 nM; with B23, 48 ± 4 nM; with B24, 9.5 ± 1.6 nM.
B25: binding was put at a Kd of 9.1 ± 0.4 nM.
For B26 the value was 4.5 ± 0.4 nM; for B27, 40.4 ± 2.6 nM.

The term Kd denotes the equilibrium constant for the complex coming apart.
